This series deals with the molecule itself. The series can be described thus: SDS-PAGE under non-reducing conditions; 12.5% acrylamide/bis gel, reduced and non-reduced conditions, Coomassie blue R-250; a second band of >100 kDa only under non-reduced conditions.

The values that follow come from article PMC3020801, “A new lysozyme from the eastern oyster, Crassostrea virginica, and a possible evolutionary pathway for i-type lysozymes in bivalves from host defense to digestion” (BMC Evolutionary Biology, 2010).

B1: cv-lysozyme 3 (enzyme, Crassostrea virginica)
chain: SDAPCTNSGGVCQDDHLACHNGHYQSGLCTGGAHRRCCLTSASHTGSFSTGIVSQQCLQCICNVESGCKAIGCHFDVNSDSCGYFQIKEGYWHDCGSPGSSWRSCANDLACASKCVQAYMSRYIGFSGCSHSCESYARIHNGGPAGCKHTNTLGYWSHVHAQGCSHNS
notes: cv-lysozyme 3, Crassostrea virginica, tryptic peptide 1-35 of the purified protein; numbers count on: the mature protein; cv-lysozyme 3, tryptic peptide 37-69; cv-lysozyme 3, tryptic peptide 70-88; cv-lysozyme 3, tryptic peptide 89-103; cv-lysozyme 3, tryptic peptide 104-114; cv-lysozyme 3, tryptic peptide 115-122; cv-lysozyme 3, tryptic peptide 123-138; cv-lysozyme 3, tryptic peptide 139-148; …
Turning to B1, the binding result is given as “binds”.
